Source: paper PMC8909857

Target: Channelrhodopsin-2 (D156C) (Chlamydomonas reinhardtii) (UniProt Q8RUT8)
Assay: SDS-PAGE; Coomassie-stained SDS-PAGE of SEC-purified fractions (elution volumes 11 to 15 mL); dimer partially SDS-resistant

Question: How did the stoichiometry N turn out when “Channelrhodopsin-2 (D156C) (from UniProt Q8RUT8 1-737) (natural protein)” was run?
Answer: The stoichiometry N was 2.
